Among the data in patent publication US20230295335A1 are Kd, koff and kon values, retold here.

As usually defined, the Kd is the equilibrium constant for the complex coming apart. Low values mean a tighter complex, high ones a looser complex. As usually defined, the koff is the rate constant with which the complex falls apart. A lower koff goes with slow dissociation. Usually kon stands for the second-order rate constant of association. Lower therefore signals slow association.

For assay [1], the target named is neonatal Fc receptor (FcRn), His-tagged (SinoBiological, cat. no. CT009-H08H-B) (UniProt P55899). Put plainly: SPR kinetics assay at pH 6.0; His-tagged FcRn captured on anti-His chip, antibody 0-100 nM; mean of three experiments. A general note: SPR reads the build-up and loss of mass on a sensor chip optically.
neonatal Fc receptor (FcRn), His-tagged (SinoBiological, cat. no. CT009-H08H-B), sequence (P55899 24-297 limits assumed, form in doubt): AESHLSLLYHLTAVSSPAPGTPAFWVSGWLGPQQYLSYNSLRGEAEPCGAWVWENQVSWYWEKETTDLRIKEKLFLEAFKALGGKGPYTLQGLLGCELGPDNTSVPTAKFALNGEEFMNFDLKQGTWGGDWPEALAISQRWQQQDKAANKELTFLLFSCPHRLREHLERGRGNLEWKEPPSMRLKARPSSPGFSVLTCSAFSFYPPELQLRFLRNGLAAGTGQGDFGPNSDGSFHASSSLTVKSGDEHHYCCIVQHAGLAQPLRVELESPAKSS
For assay [2] the target is unchanged. Put plainly: SPR kinetics assay at pH 6.0; His-tagged FcRn captured on anti-His chip, antibody 0-100 nM.

Take IgG1-b12 (antibody): the dissociation constant Kd in assay [1] came to 29 nM. In assay [2], the koff amounted to 0.0322 s⁻¹ and the on-rate (kon) was 1.1e+06 M⁻¹ s⁻¹.
